The text below walks through data of publication PMC9585320 (Frontiers in Molecular Biosciences, 2022).

Data set [1] has as its target MazF3 toxin, (His)6MazF(FLAG)3 (Mycobacterium tuberculosis) (UniProt P9WIH8). In words: MST.
Data set [2] deals with MazF9 toxin, (His)6MazF(FLAG)3 (Mycobacterium tuberculosis) (UniProt P71650). Nature of the data set: MST.
The target of data set [3] is MazE3 antitoxin, full length, (His)6MazE(FLAG)3 (Mycobacterium tuberculosis) (UniProt O53451). In words: SEC-MALS. Background: Size exclusion chromatography separates by hydrodynamic size, large species first.
The target in data set [4] is MazE9 antitoxin, full length, (His)6MazE(FLAG)3 (Mycobacterium tuberculosis) (UniProt P0CL61). In words: SEC-MALS.
Data set [5] has as its target MazF6 toxin WT, purified (Mycobacterium tuberculosis) (UniProt P9WII2). Nature of the data set: SEC-MALS.
In data set [6] the target is MazF9 toxin, (His)6MazF(FLAG)3 (Mycobacterium tuberculosis) (UniProt P71650). Nature of the data set: SEC-MALS.
The data set “SEC-MALS” deals with the molecule itself. In words: SEC-MALS.
In the next data set the target is MazE3 library. Nature of the data set: flow cytometry on cells.

Chain of MazF9 toxin, (His)6MazF(FLAG)3 (Mycobacterium tuberculosis) (P71650 whole entry): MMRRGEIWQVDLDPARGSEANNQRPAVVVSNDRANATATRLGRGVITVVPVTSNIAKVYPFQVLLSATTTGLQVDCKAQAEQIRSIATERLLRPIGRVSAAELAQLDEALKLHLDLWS

The term Kd denotes a measure of binding affinity in units of concentration. A low value points to a tighter complex. For the molecule “C-terminal MazE3 peptide (residues 72-106) (from UniProt O53451 72-106)”, the Kd worked out at 299 nM in data set [1] and 200 nM in data set [2].

For “C-terminal MazE9 peptide (residues 43-76) (from UniProt P0CL61 43-76)”, the Kd in data set [2] was found to be 5.7 nM.

For orientation: stoichiometry N means the number of molecules, sites or subunits per partner or assembly. Molecule “MazE3 antitoxin, full length, (His)6MazE(FLAG)3 (from UniProt O53451 1-106) (natural protein)” had a stoichiometry N in data set [3] of 2.

“MazE9 antitoxin, full length, (His)6MazE(FLAG)3 (from UniProt P0CL61 1-76) (natural protein)”: in data set [4], the stoichiometry N was found to be 2. Further, the Kd in data set [2] is 8.9 nM.

“MazF6 toxin WT, purified (from UniProt P9WII2 1-114) (natural protein)” came in with a stoichiometry N in data set [5] of 2.

“MazF9 toxin, (His)6MazF(FLAG)3 (from UniProt P71650 1-118) (natural protein)” registered a stoichiometry N in data set [6] of 2.

B1: MazF3 toxin, (His)6MazF(FLAG)3 (natural protein)
chain: MRPIHIAQLDKARPVLILTREVVRPHLTNVTVAPITTTVRGLATEVPVDAVNGLNQPSVVSCDNTQTIPVCDLGRQIGYLLASQEPALAEAIGNAFDLDWVVA
For the molecule B1, the “stoichiometry N” value in “SEC-MALS” worked out at 2. This molecule came in with a Kd with MazE3 library of 1.7 nM.
